We go through 1 molecule from paper PMC11475706, “ProEnd: a comprehensive database for identifying HbYX motif-containing proteins across the tree of life” (BMC Genomics, 2024).

The assay deals with T1, PAN-2 (MJ1494), HbYX ATPase from Methanocaldococcus jannaschii (Methanocaldococcus jannaschii, UniProt Q58889 1-371).
T1 construct: PAN-2 (MJ1494), Methanocaldococcus jannaschii, UniProt Q58889; The hexameric state is only an AlphaFold Multimer prediction, not a measurement; also called putative 26S proteasome regulatory subunit; source: E. coli BL21 star DE3 (pET-28a(+), IPTG), held on Ni-NTA agarose from clarified lysate and washed; not shown: His6, N-terminal, kept
T1 sequence (looked up): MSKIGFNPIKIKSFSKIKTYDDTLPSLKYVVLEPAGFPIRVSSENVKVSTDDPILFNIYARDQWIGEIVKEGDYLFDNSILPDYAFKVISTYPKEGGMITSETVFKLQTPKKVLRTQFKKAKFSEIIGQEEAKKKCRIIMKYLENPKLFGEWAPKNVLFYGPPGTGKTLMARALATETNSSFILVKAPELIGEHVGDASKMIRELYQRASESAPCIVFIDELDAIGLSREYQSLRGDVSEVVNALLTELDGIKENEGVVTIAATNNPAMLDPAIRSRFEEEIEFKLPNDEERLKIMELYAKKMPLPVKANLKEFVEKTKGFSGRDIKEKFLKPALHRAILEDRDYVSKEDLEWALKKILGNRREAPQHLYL
Description: pull-down; 6His-PAN-2 held on Ni-NTA agarose, washed with 50 mM Tris, 100 mM NaCl, 2 mM ATP, 10 mM MgCl2; tagless T20S incubated 20 min at room temperature; washed; eluted with 150 mM imidazole; T20S in the eluate quantified by suc-LLVY-amc hydrolysis; control: Ni-NTA columns with T20S alone. To be noted: both partners purified.

B1: T20S proteasome (20S from Thermoplasma acidophilum) (complex)
chain 1: MQQGQMAYDRAITVFSPDGRLFQVEYAREAVKKGSTALGMKFANGVLLISDKKVRSRLIEQNSIEKIQLIDDYVAAVTSGLVADARVLVDFARISAQQEKVTYGSLVNIENLVKRVADQMQQYTQYGGVRPYGVSLIFAGIDQIGPRLFDCDPAGTINEYKATAIGSGKDAVVSFLEREYKENLPEKEAVTLGIKALKSSLEEGEELKAPEIASITVGNKYRIYDQEEVKKFL
chain 2: TTTVGITLKDAVIMATERRVTMENFIMHKNGKKLFQIDTYTGMTIAGLVGDAQVLVRYMKAELELYRLQRRVNMPIEAVATLLSNMLNQVKYMPYMVQLLVGGIDTAPHVFSIDAAGGSVEDIYASTGSGSPFVYGVLESQYSEKMTVDEGVDLVIRAISAAKQRDSASGGMIDVAVITRKDGYVQLPTDQIESRIRKLGLIL
notes: proteasome subunit alpha, Thermoplasma acidophilum; proteasome subunit beta, Thermoplasma acidophilum; The C-terminal 6His tag on the beta subunits is preceded by a TEV site, so residues of that site probably stay at the beta C-terminus after the cut (surmise); also called archaeal proteasome T20S; archaeal 20S proteasome; source: recombinant, expressed from pET-28a(+), purified (Ni-NTA, TEV cut, …)
For the molecule B1, the “fold T20S pulled down against control Ni-NTA columns” value was found to be 7 fold.
